# Measured values published in patent US20190338002A1 (Pieris, published 2019).
# Numbering of substitutions follows the chain as printed.
# B1: lipocalin mutein SEQ ID NO: 13 (designed binder)
# chain: QDSTSDLIPAPPLSKVPLQQNFQDNQFHGKWYVVGRAGNEELREDKDPQKMEATIYELKEDKSYNVTDVGFSEKKCIYVIHTFVPGSQPGEFTLGNIKSYPGVTSALVRVVSTNYNQHAMVFFKVVKQNRELFEITLYGRTKELTSELKENFIRFSKSLGLPENHIVFPVPIDQCIDGSAWSHPQFEK
# notes: biotinylated by NHS chemistry for capture in SPR
# B2: lipocalin mutein SEQ ID NO: 16 (designed binder)
# chain: B1 chain with E40D, Q49E, S72V, E73Q, I77M, A106G, K127R
# notes: as for B1
# B3: lipocalin mutein SEQ ID NO: 22 (designed binder)
# chain: B1 chain with E40D, E41A, Q49E, F71L, S72V, E73Q, I77M, S87G, F123V, V125L
# notes: as for B1
# B4: lipocalin mutein SEQ ID NO: 21 (designed binder)
# chain: B1 chain with E40D, E41A, Q49E, S72V, E73Q, I77M, V108I, S112N, F123V, V125L
# notes: as for B1
# B5: cysteine-free lipocalin mutein SEQ ID NO: 31 (designed binder)
# chain: QDSTSDLIPAPPLSKVPLQQNFQDNQFQGKWYVVGWAGNTLLREDKDPIKMQAMIYELKEDKSYNVTWVYFADKKRNYHIETFVPGSQPGEFTLGTIKSYPGETPILVRVVSTNYNQHAMVFFKGVNQNREIFEIVLYGRTKELTNELKENFIRFSKSLGLPENHIVFPVPIDQFIDGSAWSHPQFEK
# notes: as for B1
# B6: cysteine-free lipocalin mutein SEQ ID NO: 35 (designed binder)
# chain: B5 chain with R76V, F175Y
# notes: as for B1
# B7: cysteine-free lipocalin mutein SEQ ID NO: 34 (designed binder)
# chain: B5 chain with R76I, F175E
# notes: as for B1
# B8: cysteine-free lipocalin mutein SEQ ID NO: 32 (designed binder)
# chain: B5 chain with R76M, F175Y
# notes: as for B1
# B9: lipocalin mutein SEQ ID NO: 12 (designed binder)
# chain: QDSTSDLIPAPPLSKVPLQQNFQDNQFHGKWYVVGWAGNTLLREDKDPPKMQATIYELKEDRSYNVTWVYFSEKKCNYHIETSVPGSQPGEFTLGTIQSHPGETPILVRVVSTNYNQHAMVFFKGMGQNREIFEITLYGRTKELTSELKENFIRFSKSLGLPENHIVFPVPIDQCIDGSAWSHPQFEK
# notes: as for B1
# B10: cysteine-free lipocalin mutein SEQ ID NO: 36 (designed binder)
# chain: B5 chain with F175W
# notes: as for B1
# B11: lipocalin mutein SEQ ID NO: 10 (designed binder)
# chain: B9 chain with D47N, P49T, R62K, V66A, F71L, I97T, Q98K, H100Y, M126V, G127S
# notes: as for B1
# B12: cysteine-free lipocalin mutein SEQ ID NO: 33 (designed binder)
# chain: B5 chain with R76L, F175W
# notes: as for B1
# B13: cysteine-free lipocalin mutein SEQ ID NO: 37 (designed binder)
# chain: B5 chain with R76N, F175L
# notes: as for B1
# B14: lipocalin mutein SEQ ID NO: 9 (designed binder)
# chain: B9 chain with P49I, R62K, N65D, F71L, Q98K, H100Y, P105S, G127S, T145A
# notes: as for B1
# B15: lipocalin mutein SEQ ID NO: 7 (designed binder)
# chain: B9 chain with P49I, R62K, K75R, Q98K, H100Y, P105S, M126V, G127S
# notes: as for B1
# B16: lipocalin mutein SEQ ID NO: 28 (designed binder)
# chain: B5 chain with Q28H, M54I, K62R, A72S, D73E, R76C, V111M, V136I, F175C
# notes: as for B1
# B17: lipocalin mutein SEQ ID NO: 8 (designed binder)
# chain: B9 chain with L42R, D47N, P49T, R62K, Q98K, H100Y, P105S, M126V, G127S
# notes: as for B1
# Experiments:
# [1] = target: T1, rat beta CGRP (SEQ ID NO: 83) (rat, not fully specified); experiment: SPR, 37 C, mutein captured, CGRP analyte
# T1 construct: also called rat βCGRP; rat β-CGRP
# T1 peptide: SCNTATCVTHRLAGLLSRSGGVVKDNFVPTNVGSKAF
# Experimental: (§1) The Biotin CAPture Kit (GE Healthcare) was used to immobilize biotinylated lipocalin muteins to a chip surface. Muteins were biotinylated using standard NHS chemistry. Undiluted Biotin CAPture Reagent (streptavidin conjugated with ss-DNA oligo) was captured on a Sensor Chip CAP with the pre-immobilized complementary ss-DNA oligo. Thereafter, biotinylated muteins at 1 μg/mL were applied for 300 s at a flow rate of 5 μL/min.
# (§2) CGRP species were applied in three concentrations of 30 nM, 3 nM and 0.3 nM at a flow rate of 30 μL/min or in a single concentration of 25 nM per cycle as shown in FIG. 2. The dilutions were injected with association times of 180 s and dissociation times of 5400 sec to obtain ka and kd information. Regeneration of the chip surface was achieved by injecting 6 M Guanidinium-HCl+0.25 M NaOH (120 s) with a flow rate of 10 μL/min. Injection of regeneration solutions was followed by an extra wash step with HBS-EP+(1×; BR-1006-69; GE Healthcare) running buffer and a stabilization period of 120 s.
# (§3) The data were double-referenced by subtraction of the corresponding signals measured for the control channel (loaded with Biotin CAPture reagent only) and by subtraction of buffer injections from the binding responses. Association rate constant ka and dissociation rate constant kd for the binding reaction were determined using Biacore T200 Evaluation Software V2.0 for data processing and kinetic fitting. The data were globally fit with 1:1 binding model.
# [2] = target: T2, human beta CGRP (SEQ ID NO: 81) (human, not fully specified); experiment: SPR, 37 C, mutein captured, CGRP analyte
# T2 construct: also called human βCGRP; hβCGRP
# T2 peptide: T1 peptide with S1A, V22M, D25S
# Experimental: as §1, §2, §3
# [3] = target: T3, rat alpha CGRP (SEQ ID NO: 82) (rat); experiment: SPR, 37 C, mutein captured, CGRP analyte
# T3 construct: also called rat αCGRP; rat α-CGRP
# T3 peptide: T1 peptide with K35E
# Experimental: as §1, §2, §3
# [4] = target: T4, human alpha CGRP (SEQ ID NO: 80) (human, not fully specified); experiment: SPR, 37 C, mutein captured, CGRP analyte
# T4 construct: also called human αCGRP; hαCGRP
# T4 peptide: T1 peptide with S1A, N3D, D25N
# Experimental: as §1, §2, §3
# [5] = target: T2, human beta CGRP (SEQ ID NO: 81); experiment: SPR as in Example 5
# Experimental: as §1, §2
# [6] = target: T4, human alpha CGRP (SEQ ID NO: 80); experiment: SPR as in Example 5
# Experimental: as §1, §2
# [7] = target: T2, human beta CGRP (SEQ ID NO: 81); experiment: cell-based or functional assay
# [8] = target: T4, human alpha CGRP (SEQ ID NO: 80); experiment: cell-based or functional assay
binder,measurement,setting,value
B1,Kd,[1],0.111 nM
same,koff,[1],0.00035 s⁻¹
same,kon,[1],3.16e+06 M⁻¹ s⁻¹
same,Kd,[2],0.031 nM
same,koff,[2],0.000366 s⁻¹
same,kon,[2],1.18e+07 M⁻¹ s⁻¹
same,Kd,[3],0.28 nM
same,koff,[3],0.000525 s⁻¹
same,kon,[3],1.85e+06 M⁻¹ s⁻¹
same,Kd,[4],0.075 nM
same,koff,[4],0.000436 s⁻¹
same,kon,[4],5.82e+06 M⁻¹ s⁻¹
B2,Kd,[1],0.097 nM
same,koff,[1],0.000229 s⁻¹
same,kon,[1],2.37e+06 M⁻¹ s⁻¹
same,Kd,[2],0.036 nM
same,koff,[2],0.000364 s⁻¹
same,kon,[2],1.01e+07 M⁻¹ s⁻¹
same,Kd,[3],0.28 nM
same,koff,[3],0.000398 s⁻¹
same,kon,[3],1.41e+06 M⁻¹ s⁻¹
same,Kd,[4],0.052 nM
same,koff,[4],0.000259 s⁻¹
same,kon,[4],5.02e+06 M⁻¹ s⁻¹
B3,Kd,[1],0.013 nM
same,koff,[1],2.02e-05 s⁻¹
same,kon,[1],1.6e+06 M⁻¹ s⁻¹
same,Kd,[2],0.003 nM
same,koff,[2],9.32e-06 s⁻¹
same,kon,[2],2.7e+06 M⁻¹ s⁻¹
same,Kd,[3],0.033 nM
same,koff,[3],3.05e-05 s⁻¹
same,kon,[3],931000 M⁻¹ s⁻¹
same,Kd,[4],0.009 nM
same,koff,[4],1.56e-05 s⁻¹
same,kon,[4],1.76e+06 M⁻¹ s⁻¹
B4,Kd,[1],0.018 nM
same,koff,[1],2.36e-05 s⁻¹
same,kon,[1],1.34e+06 M⁻¹ s⁻¹
same,Kd,[2],0.004 nM
same,koff,[2],8.74e-06 s⁻¹
same,kon,[2],2.36e+06 M⁻¹ s⁻¹
same,Kd,[3],0.053 nM
same,koff,[3],3.7e-05 s⁻¹
same,kon,[3],703000 M⁻¹ s⁻¹
same,Kd,[4],0.014 nM
same,koff,[4],1.71e-05 s⁻¹
same,kon,[4],1.21e+06 M⁻¹ s⁻¹
B5,Kd,[5],0.043 nM
same,Kd,[6],0.033 nM
same,"cAMP assay IC50, SK-N-MC cells",[7],1.64 nM
same,"cAMP assay IC50, SK-N-MC cells",[8],0.19 nM
B6,Kd,[5],0.017 nM
same,Kd,[6],0.045 nM
same,"cAMP assay IC50, SK-N-MC cells",[7],0.27 nM
same,"cAMP assay IC50, SK-N-MC cells",[8],0.15 nM
B7,Kd,[5],0.025 nM
same,Kd,[6],0.041 nM
same,"cAMP assay IC50, SK-N-MC cells",[7],0.29 nM
same,"cAMP assay IC50, SK-N-MC cells",[8],0.12 nM
B8,Kd,[5],0.021 nM
same,Kd,[6],0.034 nM
same,"cAMP assay IC50, SK-N-MC cells",[7],0.26 nM
same,"cAMP assay IC50, SK-N-MC cells",[8],0.17 nM
B9,Kd,[1],0.176 nM
same,koff,[1],0.000205 s⁻¹
same,kon,[1],1.17e+06 M⁻¹ s⁻¹
same,Kd,[2],0.095 nM
same,koff,[2],0.000104 s⁻¹
same,kon,[2],1.1e+06 M⁻¹ s⁻¹
same,Kd,[3],0.45 nM
same,koff,[3],0.000299 s⁻¹
same,kon,[3],661000 M⁻¹ s⁻¹
same,Kd,[4],0.15 nM
same,koff,[4],0.000162 s⁻¹
same,kon,[4],1.08e+06 M⁻¹ s⁻¹
B10,Kd,[5],0.022 nM
same,Kd,[6],0.046 nM
same,"cAMP assay IC50, SK-N-MC cells",[7],0.81 nM
same,"cAMP assay IC50, SK-N-MC cells",[8],0.25 nM
B11,Kd,[1],0.206 nM
same,koff,[1],0.000224 s⁻¹
same,kon,[1],1.08e+06 M⁻¹ s⁻¹
same,Kd,[2],0.076 nM
same,koff,[2],0.000162 s⁻¹
same,kon,[2],2.14e+06 M⁻¹ s⁻¹
same,Kd,[3],0.55 nM
same,koff,[3],0.000307 s⁻¹
same,kon,[3],559000 M⁻¹ s⁻¹
same,Kd,[4],0.163 nM
same,koff,[4],0.000205 s⁻¹
same,kon,[4],1.26e+06 M⁻¹ s⁻¹
B12,Kd,[5],0.018 nM
same,Kd,[6],0.034 nM
same,"cAMP assay IC50, SK-N-MC cells",[7],0.24 nM
same,"cAMP assay IC50, SK-N-MC cells",[8],0.14 nM
B13,Kd,[5],0.023 nM
same,Kd,[6],0.055 nM
same,"cAMP assay IC50, SK-N-MC cells",[7],0.77 nM
same,"cAMP assay IC50, SK-N-MC cells",[8],0.16 nM
B14,Kd,[1],0.075 nM
same,koff,[1],0.000275 s⁻¹
same,kon,[1],3.68e+06 M⁻¹ s⁻¹
same,Kd,[2],0.027 nM
same,koff,[2],0.000181 s⁻¹
same,kon,[2],6.8e+06 M⁻¹ s⁻¹
same,Kd,[3],0.26 nM
same,koff,[3],0.000318 s⁻¹
same,kon,[3],1.22e+06 M⁻¹ s⁻¹
same,Kd,[4],0.044 nM
same,koff,[4],0.000257 s⁻¹
same,kon,[4],5.88e+06 M⁻¹ s⁻¹
B15,Kd,[1],0.091 nM
same,koff,[1],0.000276 s⁻¹
same,kon,[1],3.04e+06 M⁻¹ s⁻¹
same,Kd,[2],0.036 nM
same,koff,[2],0.000188 s⁻¹
same,kon,[2],5.21e+06 M⁻¹ s⁻¹
same,Kd,[3],0.3 nM
same,koff,[3],0.000313 s⁻¹
same,kon,[3],1.04e+06 M⁻¹ s⁻¹
same,Kd,[4],0.067 nM
same,koff,[4],0.000249 s⁻¹
same,kon,[4],3.74e+06 M⁻¹ s⁻¹
B16,Kd,[1],0.032 nM
same,koff,[1],5.48e-05 s⁻¹
same,kon,[1],1.72e+06 M⁻¹ s⁻¹
same,Kd,[2],0.014 nM
same,koff,[2],3.41e-05 s⁻¹
same,kon,[2],2.52e+06 M⁻¹ s⁻¹
same,Kd,[3],0.049 nM
same,koff,[3],6.88e-05 s⁻¹
same,kon,[3],1.41e+06 M⁻¹ s⁻¹
same,Kd,[4],0.031 nM
same,koff,[4],4.99e-05 s⁻¹
same,kon,[4],1.59e+06 M⁻¹ s⁻¹
B17,Kd,[1],0.349 nM
same,koff,[1],0.000636 s⁻¹
same,kon,[1],1.82e+06 M⁻¹ s⁻¹
same,Kd,[2],0.143 nM
same,koff,[2],0.000529 s⁻¹
same,kon,[2],3.7e+06 M⁻¹ s⁻¹
same,Kd,[3],1.14 nM
same,koff,[3],0.000837 s⁻¹
same,kon,[3],734000 M⁻¹ s⁻¹
same,Kd,[4],0.288 nM
same,koff,[4],0.000595 s⁻¹
same,kon,[4],2.07e+06 M⁻¹ s⁻¹
